How the values were obtained:
[1] = biological target: recombinant human desmoglein-1 (DSG-1), purified, full-length (human) (UniProt Q02413); test: single-molecule force spectroscopy (AFM); AFM tips functionalized with DSG-1 against living S. aureus AD08
[2] = biological target: recombinant human desmoglein-1 (DSG-1), purified, full-length (human) (UniProt Q02413); test: single-molecule force spectroscopy (AFM); AFM tips functionalized with DSG-1 against living L. lactis SdrD^(+) on a polystyrene dish; PBS, room temperature; approach and retraction 1 μm s^−1, applied force 250 pN, dwell time 0 s
[3] = biological target: recombinant human desmoglein-1 (DSG-1), purified, full-length (human) (UniProt Q02413); test: dynamic force spectroscopy (AFM, SMFS); DSG-1 tips against L. lactis SdrD^(+); retraction speed 0.5, 1, 3, 5 and 10 μm s^−1; Bell-Evans fit; only adhesion forces of >1000 pN considered
[4] = biological target: recombinant human desmoglein-1 (DSG-1), purified, full-length (human) (UniProt Q02413); test: single-molecule force spectroscopy (AFM); DSG-1 tips against L. lactis SdrD^(+) after EDTA, with CaCl2 added to 10 mM (15 min incubation)
[5] = biological target: recombinant human desmoglein-1 (DSG-1), purified, full-length (human) (UniProt Q02413); test: single-molecule force spectroscopy (AFM); DSG-1 tips against L. lactis SdrD^(+) in the presence of 1 mM EDTA (15 min incubation)
[6] = biological target: pPROX^∗ peptide (cysteine-bearing peptide based on the p_(PROX) sequence of DSG-1) (human); test: single-molecule force spectroscopy (AFM); AFM tips carrying pPROX^∗ by a PEG27-maleimide linker against living L. lactis SdrD^(+); pulling speed 1 μm s^−1
Chain of pPROX^∗ peptide (cysteine-bearing peptide based on the p_(PROX) sequence of DSG-1) (human) (Q02413 other isoform, or with tags, fused parts or gaps): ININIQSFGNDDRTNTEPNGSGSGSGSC

Substance	rupture force (main peak) [1] [pN]	adhesion (rupture) force [2] [pN]	binding probability [2] [%]	koff [3] [s⁻¹]	adhesion force with 10 mM Ca^2+ [4] [pN]	adhesion force with 1 mM EDTA [5] [pN]	adhesion frequency [6] [%]	rupture force [6] [pN]
SdrD on the surface of Staphylococcus aureus AD08 (clinical isolate from an infected skin lesion of a patient with AD) (from UniProt Q2G0L4 36-1315) (natural protein)	1550							
serine-aspartate repeat protein D (SdrD) expressed on the surface of Lactococcus lactis MG1363 (pKS80::sdrD) (from UniProt Q2G0L4 36-1315) (natural protein)		2080	49	1.4e-07	2600	2160	33	1810

Source: article PMC12407086
